Assay: soluble on expression in E. coli; label from the status in PepcDB or PDB records

Row | Sequence | soluble on expression in E. coli
1 | MEGGKLQSTFVFEEIGRRLKDIGPEVVKKVNAVFEWHITKGGNIGAKWTIDLKSGSGKVYQGPAKGAADTTIILSDEDFMEVVLGKLDPQKAFFSGRLKARGNIMLSQKLQMILKDYAKL | soluble
2 | MSEISVTQTLDTLGLRCPEPVMLVRKNIRHLNDGEILLIIADDPATTRDIPSFCQFMDHTLLQCEVEKPPFKYWVKRGK | not soluble
3 | MSLRFEGIYTPAVTPHTPDGDIDWAVFSEVLESLIEANVHGIIIGGSTGEYYAQTAEERLKLAAHAKDVMGNRVQLIIGTGAIRTEDAVLFAKDAKALKADAILVTTPPYALPTDQENAIHALTIDRAANMPIMLYNYPGRMGVQMNEDYLARVGKSKNVIAIKESSGEMGRVHLLAREFPHIALSCGWDDQALEFFAWGARSWVCAGSNFLPREHVALYEACVIEKNFDKGRQIMSAMMPLMHALDGGKFVQCIKFGCELNGLKVGDVRAPLRPLNAEDKRSLQTVIANVKEGHHHHHH | not soluble
4 | MKLNCCGVTQIADRVERLAHTHGKTWHTWHTDQDKTLPLGVPQLMMGFTADGQADPAMQQQRNQRLGIVKSAIKAQRADIQIPKADPGADGWQHGKTIQINDPTGHLHGPATSPTPQNTNSRSTQLEHHHHHH | not soluble
5 | MAHHHHHHMPAAVPVRTPPYLVDVAANLTDCVFRGVDWKSNRLHDDDFDYVLARAQERNVQQIIITGTSLAQSVKAIALCRRYPDRRLLCTVGVHPAHCGEFLRPLDRDEVQRVAESASSVVMPHHEKSAAAMTAEREEAWAQERLDYLVDLATRNRDVVVAMGEIGIDYAEVACCPREVQEKYFARQLTAFAPLQLPFLFHSRACGMMFVSHLQDTWTRIASDAAATEAVADNAGASSPSPHAQLRGVVHSFNGTLEEQEALLSMGLYLSLNSSAFREASLAAQVALIPLGRLMFETDAPWCDVRSKDYGAQFVRTVFKTIKRKKPFEMGACLERRNEPCHLVQVMEEYLGCAKASATSPEDPLSRMDEATLVAAVYENCKRLFQL | not soluble
6 | MGSDKIHHHHHHMYKFNPQRIQIGISACLLGEKVRFDGGHKNSTYCNQEIKQFFDYVPICPEMAIGLGAPRKSIRLVRDGETILVQSGDGSLDVTDKLNEYSENKVEELDFLGGYLLCAKSPTCGMERVTEYKIGTNNGSKSGIGVFARKLMERYPLLPVEEEGRLHDMVLRENFFTRVYAYHDWHLMKHEGLTKHKLVKFHSRYKYLLMAHSPTWYRELGPIVANIEDLEQSATRYFEGFMTALKINATRKNHTSTLQHIQGYFKKHLSKEQKTELSEAIMKYREGLLPLLVPITLINHYLREFPTPYIEEQVYLNPHPEALKLRYAY | not soluble
7 | ATRDFLQRAEAAYKTDGGAAGLGQKAFVKMMQEVCELPSMVAYSLFKRLTGCEAGEEEGAAVPRDTFIKFWTGRGLVTAPPPKRAFDSLRPDGQDYLTFADFWPMMECVLRYHPGLEFLAETQEFQRKYAETVIHRIFYSLNKCGSGRLTFREFRSGELMDALYALDRENDINKILKFFSYEHFYVIYCKFWELDQDHDFQLDKTDLAHYSNCALSYVIVDRIFEEAPRKFKAGTPPGKMCYEDFVWFILSEEDKTTDTALTYWFRCVDLDGDGVIRPREMLYFYEEQLRRLEGWNQEPVQFEDLLCQLHDMLSPAKEGAFTLRDLKRTKPQSGLFFSSLFSLHKFVGFENRDPFAQRAEAAEFTGLSDWDKFAKIEYFRLASEDD | soluble
8 | MKDLLTRRFVLNSKEVREGDVFVAVKGKRFDGHDFIDEALRNGAYAIIAERKTVNSDRIFLVESSVDTLAKLAREKLGNFSGTVVGVTGSSGKTTTKEILYNLLKNKRSVFKTPGNMNTEYGLPLSILNDYKGEEILVLEMAASRPGDIAHLCKIAPPDVAVLLNVGSAHLEFFGTRERIMETKMEIIKHSKENAIAVTLFDDPDLRKEVPRYRNTLFFGKEGGDSVLKDWWYYEGSTIAEFEAFDSLFTVKLSGYWNGGQLLNIAASLCVMRTLGETVDIFDLASLKTVPGRFNVREKKGVLIVDDTYNASPEAFQTSIEALLRFPGKKFAVVGAMKELGERSKEFHEELGERLNVLDGVYVFLSEPEAEWIKSKKIILKSDDPEKIAKDLATRVKKGDVVLFKASRAVRIERVLEMFEKELEKR | soluble
9 | MSLNPASMKYEDQEFVIFDVETTGLSSVYDTIIEIGAVKMKNGEVIDRFDKFINPHHPLSETTINLTSITDEMVQAADDEAVVIKQFMDFYGNDPLCGHNVQFDVGFVDAALKRCGYPEISQPVVDTLEVSRLLHPEQSRHTLDSLCRKYNVPLEHHHRANQDAEATGYLMFKLLDAFNDKYQEDDLGKMNDYSNGEGYKRARPTHITVLAQNQKPGLRNLYELVSLAGIKYNFKGLRTPKSELRRLHAGLLYGSACSQGEVFIAMMQKGYEEAKKKAEFYDFLEIQPPSNYSSLIADGLIADEAQLEEILTNIYKLGRELNKPVVATSDAHYIDKHEAIYRDVLLAAQRGNPNRNKQHPDLHFYTTQEMLDEFSFMGEDIAKEVVISNPNKINAMIDEGVQPVQDESFPPKIPHTAERVRKLTYDKAHELYGDPLPDNIQARLDRELDAIIGNGYGVVYLISQMLVAKSVKDGYLVGSRGSVGSSLVATMMGITEINPMPPHYRCPKCKQSEFFENGEYASGFDLPDKKCPDCQVMMVKDGQNIPFETFLGFHGDKVPDIDLNFSGDYQPVAHNFIRVMFGPNHSFKAGTVGTLADKKAIGYVKHYQDEHPEIKMNNAEVDRLAIGVTGVKATTGQHPAGIVVLPDDKDIYELTPLQYPSDDISKEWKTTHFDFHQIHDNLLKFDILGHQDPTMIRMLQDLSGIDPLTIPTDDPKVMSLFSSPEALGVTPEQINSKTGTLGLPEFGTPFVRGMLEETKPSTFAELLQISGLSHGTDVWLGNAEELINNGTCKLKNVIGCRDNIMTDLIRWGVKEEVAFSTMETVRKGKGISDENMAVLKENKNIPDWYIPSCLKIKYMFPKAHAAAYILMALRVAWFKVYYPEIYYAAYFSVRADKVDLEAMSRGKNTVVALINRIKEKGTAATKLEKDLQTYMELVNEAIERGINFKMVDINESEATTYKIVDKHTILAPFNAVDGLGDSAAKQIVAARSEAPFLSKEDLQVRGKVSQKIMDFFENNNVLEGMPDQNQLSLFEGHHHHHH | soluble
10 | GEEDLCAAFNVICDNVGKDWRRLARQLKVSDTKIDSIEDRYPRNLTERVRESLRIWKNTEKENATVAHLVGALRSCQMNLVADLVQEVQQARDLQNRSGAMSPMSWNSDASTSEASHHHHHH | soluble
11 | INPAAHGAMDELLGELRLHTVCREARCPNITECFRERQATFLILGAECTRLCSFCNVTKGEPLPPDPDEPARVAQAVVRLSLAHVVITSPTRDDLPDGGAGHYVATVATIGRVAPATVVELLIPDFLGSRAALADVVAAAPRIIGHNVETVPRLYAIRAGADYGRSLAVLRTLRELAPGCATKSGLMLGLGETEEEVLAVMADLRRVDCTYLSLGQYLAPSRFHHPVREFVLPETFDRLKELAEKMGFRHVESGPY | not soluble
12 | MAALRVPLSQQQLEQLKANKKWGEYVEAQAGQKYEHFTSPYKQSMLTVKEWIMPQGLVIYVRTDDGTYPARVVNAGPDNICVRIVKANKSDPEPETQISYDQVIKSTEVLKMEPLKFKWIRKKTDNLYSIEAFQNLSGFFNKKVFELLKKGDFMEYQHDDEPWKCTIVEIIENHNGLIFIRNGLFVRCVHMFSPFCHELGWADKLKETNDERAAGMTYKILIKLENDRDQRVIVDRHIFRNNTISPHRFQDLQVLVYLEEDHFYLAHVKCKTRKTGLTDSYFFQISRGTELVRDSLLSDNKMPVQFHLNDARIFGYRDLERLHFPIDLPDGVQKIEGESNVDAYIRTYCLTDKEKARVPRLNESEKRAMFDRKILSNEIGVHMKHGAMLRDSKFNPTAGSLTPWAGTKCAEVSWFLPSSGRTRNRRADLLAARVVKYTEHIAHLYVARLDKTIYMHVADPRLHPAGFADGVNLPIEYSDAFAKDADIEIQISQLEETLDNLACEQDSTKDQN | not soluble
13 | MQAAPQGGIYNYFHSLLPPLSLAPFLPRTPLPSTSLFCKGLKKERYKPRFRPRECHCSVENLHLGHEMQNSHRTICKSALQLLPPSWSDPFRRRDADFPPNSPSPARPSSENASNRAKEKVHLSPIIALCISHHTSQEKLFTQHLMNMPTGETHKSPPS | not soluble
14 | MSLIPIVASSPSPLISGDGDDALRQIGLLHERSAPLGAMMIDHGPDIGERSPVFSMTTIDGVPVTVGRAVSPGRPSLLMFTGPSCPICQKLLPIIRSVAATEGADVILISDGTQAEHREFLRNHPLDGEHYVVSAEIGMRYQVSKVPYGVLLDKDGVIQAKGLCNTREHVESLFETTRVGHSTLQNFLKHGVEDASKHEGHHHHHH | soluble
15 | MGSSHHHHHHSSGLVPRGSHMQQLPKAIIIGVRKGGTRALLEMLNLHPAVVKASQEIHFFDNDENYGKGIEWYRKKMPFSYPQQITIEKSPAYFITEEVPERIYKMNSSIKLLIIVREPTTRAISDYTQVLEGKERKNKTYYKFEKLAIDPNTCEVNTKYKAVRTSIYTKHLERWLKYFPIEQFHVVDGDRLITEPLPELQLVEKFLNLPPRISQYNLYFNATRGFYCLRFNEIFNKCLAGSKGRIHPEVDPSVITKLRKFFHPFNQKFYQITGRTLNWP | soluble
16 | MGSDKIHHHHHHMSKFHELTVASVTRETRDAVAVTFAVPEDLADTYRYVQGQHLTLRAGIGGEDVRRSYSICSAVQDRRLRVAIKRVDGGMFSNWANDALQPGMTLEVMPPSGHFHVPLSDTHSKHYVAFAAGSGITPMLSIIKTTLMTEPDSRFTLFYGNRASSSVLFKEELEDLKDTYLERFNLVFILSREQLDIDLFNGRIDGEKVRALLRHWVRPQDIDVAFICGPHSMMEEVSQALQENGVDKARIKRELFATSIPAARPAAHAHKQLGQQQCEVTVIQDGRTRQFTLEKNKETILDAALAQGIELPYSCKGGVCSTCRCKRIEGEVDMDVNFALEDYEVARGFILSCQSYAVTDKLVIDFDQET | not soluble
17 | MGGSHHHHHHGMASALAPKQDPKPKFQEGERVLCFHGPLLYEAKCVKVAIKDKQVKYFIHYSGWNKNWDEWVPESRVLKYVDTNLQKQRELQKANQEQYAEGKMRGAAPGKKTSGLQQKNVEVKTKKNKQKTPGNGDGGSTSETPQPPRKKRARVDPTVENEETFMNRVEVKVKIPEELKPWLVDDWDLITRQKQLFYLPAKKNVDSILEDYANYKKSRGNTDNKEYAVNEVVAGIKEYFNVMLGTQLLYKFERPQYAEILADHPDAPMSQVYGAPHLLRLFVRIGAMLAYTPLDEKSLALLLNYLHDFLKYLAKNSATLFSASDYEVAPPEYHRKAV | not soluble
18 | MGSDKIHHHHHHMKVICITQARMGSSRLPGKVLKIIGTRPMLEYHVRRVAKSKLINHHIIATSNQENDLPIVEYCQQNNIDYYRGNETDVLGRFYETALSVHAEPDDIIIRLTGDCPLICPQLIDDAIKLQFSGESQQYTHVSLAYFPRGFDVEVFRMRSLSEAYFKALAPAQREHVTLYLYSKPDALIVPVTLHGNPSWSHFRLCVDEQDDFLLVEQLICRLGEQWLDAGPRQICELLEGNPQLVTINAHIHQRTAH | not soluble
19 | GPGSMQTAHAHTMTAQMKVLKPKTVFDNRPDEARKPIKLILLGDSAVGKSKLVERFLMQRYIPVQMSTYALTLYRYDFVTEDGEEVDVDIWDTAGQERFATVHPSYYHDAHACILVFDSTRKATYKNLEKWLSEMRVYREHIPCLVACNKIDTDPSVTTKSFAFAEKHNFPLYYVSAADGSNVVQLFESAISTAAAYKKNPAKDDFMTQVIGILKEDKTAAGASAVSS | soluble
20 | MAHHHHHHMDVSQFLKSFKKNVAAKSKRSSSVRQSDEAANSGAEEDVTEIFHSASDSEADGEAEDGEVILGGRADKMAGKRYTRNMDHSKRNREFAALKVVETNSVPAVEAGRFQRQRAALARQATDARKPPRTEMIASVRAELLRQREKLRGSNALDSANQLDASVQKMETTMIEVEDLLQASAPTAATSASVLDFLPAAPLPAPRQATLTTASRAASIAVALSEPQPPSSSVTNGRAGTPTVNDPALEEPPKLPKKRTKFELAMAMAHDEVAS | not soluble

From the DeepSol protein solubility set
